Results on one substance are retold here after publication PMC8546591, “Neodymium as Metal Cofactor for Biological Methanol Oxidation: Structure and Kinetics of an XoxF1-Type Methanol Dehydrogenase” (mBio, 2021).

For one series, the system named is C=O. In words: purified protein. Conditions: pH 7, 45°C, 1 mM PES, 100 μM DCPIP, 200 nM enzyme, no ammonium, first 2 min, formaldehyde from dissolved paraformaldehyde.
The next series concerns CO. Briefly: purified protein. Conditions: pH 7, 45°C, 1 mM PES, 100 μM DCPIP, 200 nM enzyme, no ammonium, first 2 min.

For “Nd-XoxF1 (XoxF1-type methanol dehydrogenase) (Methylacidimicrobium sp. AP8)”, the values for the Km in the series on C=O and with CO were 1.6 ± 0.8 µM and 1.4 ± 0.6 µM, respectively.

What is called Km is the concentration of substrate that gives half-maximal velocity.
